This is an account of results in paper PMC4233142.

This test deals with YFPC-2aCore (hepatitis C virus genotype 2a (JFH-1)) (UniProt Q99IB8). The test is described as follows: split reporter.

Turning to “YFPN-2a5B (from UniProt Q99IB8 2443-3033) (natural protein)”, the percent of RFP-expressing cells that also expressed YFP was 43%.
